In series [1] the target is Tdi orphan B (TdioB), orphan immunity protein. Kind of series: BLI; Octet Red96; hexahistidine immunity proteins (5 mg/mL) immobilised on NTA biosensors; varying concentrations of Tde1^tox H279A/D282A in Octet kinetics buffer; association 300 s, dissociation 600 s; one site fit of equilibrium binding data.
The target of series [2] is Tdi1 (cognate immunity protein of Tde1) (Phocaeicola vulgatus). Described as above.
Series [3] concerns the target Tdi orphan A (TdioA), orphan immunity protein. Described as above.
Series [4] has as its system Tde1tox H279A/D282A (catalytically inactive Ntox15 domain) (Phocaeicola vulgatus). Kind of series: BLI. The following applies: BLI (Octet Red96), biotinylated oligo on streptavidin sensors, Octet kinetics buffer (Sartorius), association 300 s, dissociation 600 s, one-site equilibrium …. A general note: BLI is a label-free optical method that tracks binding on a fibre tip over time.

As for “Tde1^tox H279A/D282A (catalytically inactive Ntox15 domain of the Hcp-Ntox15 effector Tde1) (domain or fragment)”, the values for the equilibrium dissociation constant (Kd) in series [1], in series [2] and in series [3] were 19 nM, 18 nM and 24 nM, respectively.

With “30-nt random-sequence biotinylated ssDNA”, the dissociation constant Kd in series [4] was 500 nM.

“30-bp random-sequence biotinylated dsDNA” returned a dissociation constant Kd in series [4] of 500 nM.

The Kd is the free concentration of one partner at which half of the binding sites on the other are occupied at equilibrium, for simple one-to-one binding. A lower Kd goes with tighter binding.
